From the supplement of paper PMC7877785
± gives the uncertainty stated by the source.

Experiment: self-splicing fitness, log relative to wild type (ln ratio); higher = more splicing; Tetrahymena group I intron in knt gene, E. coli kanamycin selection, DiMSum; sequences stand for … in CUCUCU…GGAGGGAAAAGUUAUCAGGCAUGCACCUGGUAGCUAGUCUUUAAACCAAUAGAUUGCAUCGGUUUAAAAGGCAAGACCGUCAAAUUGCGGGAAAGGGGUCAACAGCCGUUCAGUACCAAGUCUCAGGGGAAACUUUGAGAUGGCCUUGCAAAGGGUAUGGUAAUAAGCUGACGGACAUGGUCCUAACCACGCAGCCAAGUCCUAAGUCAACAGAUCUUCUGUUGAUAUGGAUGCAGUUCACAGACUAAAUGUCGGUCGGGGAAGAUGUAUUCUUCUCAUAAGAUAUAGUCGGACCUCUCCUUAAUGGGAGCUAGCGGAUGAAGUGAUGCAACACUGGAGCCGCUGGGAACUAAUUUGUAUGCGAAAGUAUAUUGAUUAGUUUUGGAGUACUCGUGGUCG
How it was run: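 The eight P1ex-region nucleotides of an intron in the knt kanamycin-resistance gene on pET-22b(+) were all randomised and the library put into E. coli BL21(DE3). Six replicate transformations were grown overnight at 37°C or 30°C on LB agar with or without 25 μg/mL kanamycin, together with 100 μg/mL carbenicillin, 50 μM IPTG and 0.2% rhamnose. Colonies were pooled and amplicon-sequenced on an Illumina HiSeq 2500. Fitness from DiMSum is the error-weighted combination of wild-type-normalised replicate fold changes, kanamycin over none.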

Sequence	self-splicing fitness (ln) (30 °C)	self-splicing fitness (ln) (37 °C)
CUCAAGCAAUAUUACGGCGU	-2.09 ± 0.23	-2.39 ± 0.46
CUCAAGCAAUAUUACGGGCU	-4.09 ± 0.27	-3 ± 0.26
CUCAAGCAAUAUUACGGGGU	-3.4 ± 0.15	-3.44 ± 0.19
CUCAAGCAAUAUUACGGGUU	-3.49 ± 0.17	-1.4 ± 0.13
CUCAAGCAAUAUUACGUAUC	-2.94 ± 0.14	-1.79 ± 0.14
CUCAAGCAAUAUUACGUCGC	-4.2 ± 0.39	-2.27 ± 0.33
CUCAAGCAAUAUUACGUCUA	-3.15 ± 0.16	-2.07 ± 0.14
CUCAAGCAAUAUUACGUCUG	-4.24 ± 0.28	-1.36 ± 0.17
CUCAAGCAAUAUUACGUUAC	-4.46 ± 0.31	-3.47 ± 0.29
CUCAAGCAAUAUUACGUUAG	-2.26 ± 0.062	-1.47 ± 0.075
CUCAAGCAAUAUUACGUUAU	-3.81 ± 0.15	-3.39 ± 0.2
CUCAAGCAAUAUUACGUUCU	-3.9 ± 0.19	-2.68 ± 0.17
CUCAAGCAAUAUUACGUUUA	-3.93 ± 0.24	-2.65 ± 0.16
CUCCAGCAAUAUUACGAAAU	-2.83 ± 0.19	-1.75 ± 0.31
CUCCAGCAAUAUUACGAAGG	-3.5 ± 0.32	-2.13 ± 0.23
CUCCAGCAAUAUUACGACAC	-2.74 ± 0.33	-1.12 ± 0.34
CUCCAGCAAUAUUACGAUCU	-4.21 ± 0.27	-1.16 ± 0.12
CUCCAGCAAUAUUACGAUUA	-2.63 ± 0.32	-2.37 ± 0.37
CUCCAGCAAUAUUACGCAGA	-3.72 ± 0.35	-1.94 ± 0.2
CUCCAGCAAUAUUACGCUAG	-3.91 ± 0.17	-2.7 ± 0.2
CUCCAGCAAUAUUACGGAGC	-1.83 ± 0.12	-2.69 ± 0.2
CUCCAGCAAUAUUACGGAGU	-4.09 ± 0.31	-1.28 ± 0.19
CUCCAGCAAUAUUACGGAUC	-1.86 ± 0.099	-1.47 ± 0.14
CUCCAGCAAUAUUACGGAUU	-2.59 ± 0.26	-2.07 ± 0.18

Sequence	self-splicing fitness (ln) (30 °C)	self-splicing fitness (ln) (37 °C)
CUCCAGCAAUAUUACGGCCA	-2.94 ± 0.25	–
CUCCAGCAAUAUUACGGCUU	-1.73 ± 0.19	-2.76 ± 0.31
CUCCAGCAAUAUUACGGGAU	-2.92 ± 0.11	-1.18 ± 0.1
CUCCAGCAAUAUUACGGUUU	-2.02 ± 0.11	-2.39 ± 0.19
CUCCAGCAAUAUUACGUAAU	-4.88 ± 0.23	-3.21 ± 0.2
CUCCAGCAAUAUUACGUCAA	-3.08 ± 0.19	-3.24 ± 0.23
CUCCAGCAAUAUUACGUCGA	-4.42 ± 0.27	-2.73 ± 0.17
CUCCAGCAAUAUUACGUGUA	-2.95 ± 0.14	-2.82 ± 0.19
CUCCAGCAAUAUUACGUUAC	-3.6 ± 0.18	-2.42 ± 0.2
CUCCAGCAAUAUUACGUUCA	-3.32 ± 0.29	-2.85 ± 0.25
CUCCAGCAAUAUUACGUUGU	-4.22 ± 0.15	-3.49 ± 0.21
CUCGAGCAAUAUUACGAACA	-1.56 ± 0.41	-2.03 ± 0.49
CUCGAGCAAUAUUACGACAC	-2.69 ± 0.27	–
CUCGAGCAAUAUUACGACAU	-3.527 ± 0.027	-2.07 ± 0.038
CUCGAGCAAUAUUACGAUAG	-1.11 ± 0.15	-0.333 ± 0.15
CUCGAGCAAUAUUACGAUCG	–	-1.71 ± 0.28
CUCGAGCAAUAUUACGCAAA	-2.55 ± 0.33	-3.66 ± 0.46
CUCGAGCAAUAUUACGCAGA	-2.04 ± 0.35	-0.967 ± 0.17
CUCGAGCAAUAUUACGCCUU	-2.45 ± 0.15	-2.72 ± 0.37
CUCGAGCAAUAUUACGCGAA	-3.3 ± 0.34	-2.41 ± 0.37
CUCGAGCAAUAUUACGCGGA	-3.05 ± 0.24	-2.63 ± 0.22
CUCGAGCAAUAUUACGCGUA	-2.97 ± 0.48	-1.59 ± 0.23
CUCGAGCAAUAUUACGCUGC	-3.61 ± 0.42	–
CUCGAGCAAUAUUACGGAGU	-3.07 ± 0.22	-2.57 ± 0.31
